The text below walks through data of PMC11933327, “Asymmetric activation of dimeric ATM/Tel1 kinase” (Cell Discovery, 2025).

Experiment [1] deals with ATM/Tel1, active state (endogenously activated by DNA damage) (Schizosaccharomyces pombe) (UniProt O74630). Put plainly: mass photometry; active ATM/Tel1 incubated with over-saturated full-length CHK2, complex fractionated by GraFix.
For experiment [2] the target is unchanged. In words: cryo-EM structure; active wild-type ATM/Tel1 incubated with the CHK2 63-74 peptide and AMP-PNP in vitro; Structure 2, 3.6 Å.
Experiment [3] addresses ATM/Tel1, basal state (Schizosaccharomyces pombe) (UniProt O74630). In words: cryo-EM structure; basal state; resolution improved from 7.8 Å to 4.3 Å with a new algorithm.
For the next experiment, the system named is active ATM/Tel1 dimer. Put plainly: Mass photometry of GraFix-assembled ATM/Tel1-CHK2 complex. The following applies: over-saturated full-length CHK2, AMP-PNP, mass photometry 25 °C, 20 nM final protein. Type of experiment: binding, Schizosaccharomyces pombe. As for the experimental part:
to SDS- PAGE and analyzed by Western blot (WB) using pan- acetylated -Lysine (Rabbit monoclonal, Cat# 9441S, Cell Signaling Technology). and phospho-ATM/ATR substrate (pSQ/pTQ motif, Rabbit monoclonal, Cat# 6966, Cell Signaling Technology) antibodies.
Surface plasmon resonance
Interaction analysis between ATM/Tel1 in different states and CHK2 was performed at 20 °C using a Biacore 8K (GE Healthcare) by immobilizing CHK2 onto a CM5 sensor chip. A twofold dilution series of […] was injected at a flow rate of 30 µl min –1 in PBS running buffer. All conditions were tested for at least five different antibody concentrations, and the blank channel of the chip served as the negative control. After each cycle, the sensor was regenerated with 10 mM NaOH.
Data processing and kinetic analyses were performed using Biacore 8K Evaluation Software […]
To determine the stoichiometry and mass distribution between active ATM/Tel1 and its substrate CHK2, standard mass photometry landing assays were performed at 25 °C using a TwoMP instrument (Refeyn) mounted on an active anti-vibration platform. […] Bovine serum albumin standards (Beyotime) were measured on the same day to calibrate extracted particle contrast relative to mass. […]

The target of experiment [4] is ATM/Tel1, active state (endogenously activated by DNA damage) (Schizosaccharomyces pombe, UniProt O74630 1-2812, autophosphorylation and acetylation (sites not given)). Put plainly: SPR. (In SPR one partner is held on a chip, and binding of the other changes the refractive index at the surface.)
Chain of ATM/Tel1, active state (endogenously activated by DNA damage) (O74630 whole entry): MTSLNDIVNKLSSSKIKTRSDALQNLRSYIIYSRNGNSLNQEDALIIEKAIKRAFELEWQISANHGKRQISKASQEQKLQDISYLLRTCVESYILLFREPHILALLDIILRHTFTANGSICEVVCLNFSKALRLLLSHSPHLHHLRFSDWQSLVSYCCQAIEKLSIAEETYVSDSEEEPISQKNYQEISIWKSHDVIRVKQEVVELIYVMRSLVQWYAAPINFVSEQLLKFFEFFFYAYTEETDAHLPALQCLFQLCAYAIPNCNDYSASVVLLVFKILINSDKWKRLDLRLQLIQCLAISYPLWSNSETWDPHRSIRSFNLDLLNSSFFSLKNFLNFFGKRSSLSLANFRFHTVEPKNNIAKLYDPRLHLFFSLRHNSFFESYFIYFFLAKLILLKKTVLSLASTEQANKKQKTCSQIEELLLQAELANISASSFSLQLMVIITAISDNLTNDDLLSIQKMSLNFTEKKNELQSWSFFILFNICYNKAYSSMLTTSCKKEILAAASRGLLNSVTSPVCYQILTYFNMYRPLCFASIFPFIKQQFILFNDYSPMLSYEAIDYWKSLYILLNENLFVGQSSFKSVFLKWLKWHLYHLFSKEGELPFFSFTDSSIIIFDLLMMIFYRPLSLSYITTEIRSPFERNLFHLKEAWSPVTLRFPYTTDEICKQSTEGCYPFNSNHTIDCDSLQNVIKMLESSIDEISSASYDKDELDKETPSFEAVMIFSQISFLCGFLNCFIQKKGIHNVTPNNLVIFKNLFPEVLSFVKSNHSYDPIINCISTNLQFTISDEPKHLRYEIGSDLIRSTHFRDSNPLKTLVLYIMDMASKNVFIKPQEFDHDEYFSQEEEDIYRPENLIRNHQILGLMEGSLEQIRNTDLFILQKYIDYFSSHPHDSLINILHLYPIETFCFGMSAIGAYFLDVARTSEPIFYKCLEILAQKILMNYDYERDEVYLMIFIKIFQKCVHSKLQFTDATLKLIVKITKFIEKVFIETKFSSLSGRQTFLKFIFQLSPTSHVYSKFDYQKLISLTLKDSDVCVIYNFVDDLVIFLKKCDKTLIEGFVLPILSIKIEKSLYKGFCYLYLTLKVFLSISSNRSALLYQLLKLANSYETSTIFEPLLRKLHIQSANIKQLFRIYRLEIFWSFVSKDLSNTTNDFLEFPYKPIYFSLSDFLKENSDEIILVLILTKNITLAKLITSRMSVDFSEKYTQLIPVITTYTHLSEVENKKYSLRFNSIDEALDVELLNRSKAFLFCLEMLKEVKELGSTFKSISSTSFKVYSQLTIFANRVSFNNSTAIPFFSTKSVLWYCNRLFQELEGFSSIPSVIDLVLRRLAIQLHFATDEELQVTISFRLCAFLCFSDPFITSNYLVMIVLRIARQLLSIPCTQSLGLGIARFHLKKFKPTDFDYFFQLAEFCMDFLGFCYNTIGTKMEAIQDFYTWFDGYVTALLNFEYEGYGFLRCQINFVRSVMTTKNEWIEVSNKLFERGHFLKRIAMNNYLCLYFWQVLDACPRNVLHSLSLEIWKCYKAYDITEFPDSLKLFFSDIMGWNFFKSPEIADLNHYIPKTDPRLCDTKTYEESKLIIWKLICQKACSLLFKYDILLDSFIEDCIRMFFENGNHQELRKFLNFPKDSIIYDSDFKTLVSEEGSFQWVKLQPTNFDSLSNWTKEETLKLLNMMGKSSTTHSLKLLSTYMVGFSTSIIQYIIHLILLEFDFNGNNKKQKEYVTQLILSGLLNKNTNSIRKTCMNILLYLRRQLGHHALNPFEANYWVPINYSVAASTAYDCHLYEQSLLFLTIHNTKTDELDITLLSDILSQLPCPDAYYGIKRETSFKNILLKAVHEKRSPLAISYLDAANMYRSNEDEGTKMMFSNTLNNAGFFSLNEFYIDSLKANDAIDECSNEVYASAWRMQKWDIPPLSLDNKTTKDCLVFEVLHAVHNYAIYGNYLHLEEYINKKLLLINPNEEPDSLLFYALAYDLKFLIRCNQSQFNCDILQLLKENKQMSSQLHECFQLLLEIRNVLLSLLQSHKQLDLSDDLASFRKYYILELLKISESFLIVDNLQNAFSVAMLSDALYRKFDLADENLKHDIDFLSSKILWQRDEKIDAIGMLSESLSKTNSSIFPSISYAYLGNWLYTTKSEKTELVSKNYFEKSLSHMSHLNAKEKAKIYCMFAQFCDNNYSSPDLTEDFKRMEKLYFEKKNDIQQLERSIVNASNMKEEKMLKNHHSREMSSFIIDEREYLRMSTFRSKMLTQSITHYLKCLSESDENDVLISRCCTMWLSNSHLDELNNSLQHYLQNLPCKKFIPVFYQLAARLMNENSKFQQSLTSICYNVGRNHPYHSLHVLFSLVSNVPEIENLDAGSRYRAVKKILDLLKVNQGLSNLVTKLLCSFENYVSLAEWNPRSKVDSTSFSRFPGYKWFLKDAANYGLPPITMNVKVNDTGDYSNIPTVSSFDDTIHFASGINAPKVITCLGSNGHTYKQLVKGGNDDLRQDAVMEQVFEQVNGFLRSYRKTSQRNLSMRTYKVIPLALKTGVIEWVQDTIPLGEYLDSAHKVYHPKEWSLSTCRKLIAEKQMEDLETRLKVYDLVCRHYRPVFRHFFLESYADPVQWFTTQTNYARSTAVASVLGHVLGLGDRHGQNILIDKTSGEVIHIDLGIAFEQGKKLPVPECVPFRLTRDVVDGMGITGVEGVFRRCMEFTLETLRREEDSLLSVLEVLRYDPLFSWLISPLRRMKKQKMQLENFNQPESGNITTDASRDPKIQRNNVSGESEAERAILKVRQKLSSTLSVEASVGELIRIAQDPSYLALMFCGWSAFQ
Experiment [5] deals with ATM/Tel1, basal state (Schizosaccharomyces pombe, UniProt O74630 1-2812). Put plainly: SPR.
Experiment [6] addresses T1, ATM/Tel1, basal state (Schizosaccharomyces pombe, UniProt O74630 1-2812).
T1 construct: ATM/Tel1 kinase of Schizosaccharomyces pombe, basal state, symmetric homodimer; also called basal ATM/Tel1; basal-state ATM/Tel1; source: purified
Put plainly: SPR; CHK2 (full length or peptide) at varied concentrations on basal or active ATM/Tel1. The following applies: both partners purified.

By stoichiometry N is commonly meant the number of molecules, sites or subunits per partner or assembly. In the case of “ATM/Tel1, active state (endogenously activated by DNA damage), O74630 1-2812”, the stoichiometry N in experiment [1] and in experiment [2] was 2 each time.
In experiment [3], ATM/Tel1, basal state, O74630 1-2812 returned a stoichiometry N of 2.
For the molecule “full-length CHK2: human full-length CHK2, C-terminal 6× His tag, expressed in E. coli BL21(DE3)”, the “CHK2 molecules bound per ATM/Tel1 dimer” value in the experiment on active ATM/Tel1 dimer is reported as “only one CHK2 molecule is bound to an ATM/Tel1 dimer”.

B1: CHK2 substrate peptide (CHK2 63-74) (peptide, UniProt O96017 63-74, looked up)
peptide: LETVSTQELYSI
notes: CHK2 residues 63-74; also called CHK2 peptide
What is called Kd is the constant that tells how readily two partners part at equilibrium. Low values mean tighter binding, high ones weaker binding. As to B1, the Kd in experiment [4] is 2.37 µM; with ATM/Tel1, basal state [5], 296 µM. For the same molecule, in the experiment with ATM/Tel1, basal state [6], the “fold reduction of affinity against active ATM/Tel1” value is greater than 120 fold.
